# Reference: paper PMC10649158
# Biological target: Canavalia villosa seed lectin (Cvill) (Canavalia villosa)
# Assay: crystal structure; Cvill with alpha-methyl-D-mannopyranoside; 17.5% PEG1000, 0.1 M potassium phosphate citrate pH 4.2, 200 mM lithium sulfate, room temperature; space group I222, one monomer per asymmetric unit; tetramer formed by the crystal's 222 symmetry, dimers and tetramers predicted with PISA
substance,measurement,value
Canavalia villosa seed lectin (Cvill) (natural protein),stoichiometry N,4
